{
  "source": "patent US20230115785",
  "about": "“ANALYTE DETECTION” (University of Leeds, published 2023)",
  "binders": {"B1": {"name": "hCRP aptamer 1 (ssDNA)", "DNA": "AAGCCTTTATTTCAACGGCAGGAAGACAAACACGATGGGGGGGTATGATTTGATGTGGTTGTTGCATGATCGTGGTCTGTGGTGCTGT", "modifications": "5'-NH2"}, "B2": {"name": "hCRP aptamer 2 (ssDNA)", "DNA": "CGAAGGGGATTCGAGGGGTGATTGCGTGCTCCATTTGGTGTTTTTTTTTTTTGCAAGGATAAAAATTT", "modifications": "3'-NH2"}, "B3": {"name": "Nonspecific random aptamer (ssDNA)", "DNA": "CTGAACAAGAAAAATAGCAGAACTTACGAGCCAGGGGAAACAGTAAGGCCTAATTAGGTAAAGGAGTAAGTGCTCGAACGCTTCAGA", "modifications": "5'-NH2"}},
  "details_in_all_cases": "chain copies: 5 (pentamer, stated)",
  "key": {"[1]": {"molecular_target": "T1, C-reactive protein (CRP, pentamer) (Homo sapiens, UniProt P02741 P02741:19-224)", "T1 sequence": "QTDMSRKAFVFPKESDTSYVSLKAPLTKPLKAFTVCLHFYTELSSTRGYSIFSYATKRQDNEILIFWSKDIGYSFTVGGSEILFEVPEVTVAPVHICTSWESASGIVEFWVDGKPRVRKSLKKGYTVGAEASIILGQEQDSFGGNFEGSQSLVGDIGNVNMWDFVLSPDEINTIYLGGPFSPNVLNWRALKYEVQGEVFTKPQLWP", "assay": "SPR; amine-anchored extended aptamer; 10 mM TrisAc, 10 mM MgAc, 2 mM CaCl2, 1 mM EDTA; faster kinetics than aptamer 2", "description": "(§1) Aptamer-protein binding studies were carried out via an ESPRIT SPR instrument from Metrohm Autolab B.V (Utrecht, The Netherlands). For this, the end-modified aptamers attached with an amine group were anchored onto the gold SPR surface functionalized with a self-assembled monolayer (SAM) of C11PEG6COOH via EDC (1-ethyl-3-(3-dimethylaminopropyl) carbodiimide) NHS (N-hydroxysuccinimide) coupling chemistry. The gold SPR surface from XanTec bioanalytics was cleaned by sonication twice in acetone for 10 minutes and then immersed in an ethanolic 1 mM SAM solution containing 5% acetic acid and allowed to stand at room temperature for 48 hours. Following the incubation, the surface was rinsed with 100% ethanol, quickly dried with nitrogen and was mounted on the SPR system. To attach the DNA aptamers to the gold surface, the COOH-terminated SAM surface was activated with 50 mM EDC and 200 mM NHS in 100 mM MES buffer at pH5.5 for around 15 min. The surface was washed with the MES buffer, followed by a 30-minute incubation with 5 μM of DNA aptamer in 10 mM sodium acetate buffer at pH5.5. Any remaining activated COOH sites were quenched by exposing the surface to 100 mM ethanolamine in water for around 10 min. […] The binding was measured as the change in resonance angle."}, "[2]": {"molecular_target": "T1, C-reactive protein (CRP, pentamer)", "assay": "SPR; amine-anchored extended aptamer; slower kinetics than aptamer 1; similar carrier sensing results (p217)", "description": "as §1"}, "[3]": {"molecular_target": "T1, C-reactive protein (CRP, pentamer)", "assay": "nanopipette translocation; carrier 9 nM, CRP 90 nM; no single peaks", "description": "For the translocation experiments the nanopipettes with the working electrode were filled with the translocation buffer (0.1 M KCl with 10 mM TrisAc, 10 mM MgAc, 2 mM CaCl₂) and 1 mM EDTA) containing the DNA origami and analyte where applicable at a final concentration of 500 pM. The Mg is required to maintain the stability of the DNA origami, and the Ca to match the buffer conditions used to select the DNA aptamers employed as binding moieties. The grounded counter electrode was immersed in a 0.1 M KCl solution completing the circuit. […] Measurements were recorded using the Axopatch 700b amplifier, and the data were acquired at a rate of 100 kHz and 20 kHz low pass filtered. […]\nTo investigate the specificity of our sensing system, and in particular of the carriers to the CRP target, a random DNA sequence was selected to act as a non-specific aptamer and the translocation ion current was measured for carrier concentration of 9 nM and CRP concentration of 90 nM, i.e. the highest concentration reported in FIG. 6. A single distribution of peak amplitudes and dwell times with averages of 69±5 pA and […], respectively, were found, consistent with the values measured with unoccupied carriers."}},
  "data": [
    {"binder": "B1", "values": [
      {"measurement": "binding result", "setting": "[1]", "value": "binds"}
    ]},
    {"binder": "B2", "values": [
      {"measurement": "binding result", "setting": "[2]", "value": "binds"}
    ]},
    {"binder": "B3", "values": [
      {"measurement": "binding result", "setting": "[3]", "value": "no binding"}
    ]}
  ]
}
